First the molecules themselves.
B1: unnamed (parent)
chain 1: MSHRLTCAYSGFSSDIHAVWVRQAAGKGLEWIAYISDSSAYIYYSQSVRGRFTISRDNSRKQVYLQMNSLTTEDSAVYYCTREGSGFAFDYWGKGTGGGGSGGGGSGGGGSVTISATGSSNIGADLSWYLQKTGETPKLLIYKASTRSSGTPPRFSGSTSGSQYTLTISGVQAEDAGDYYCLGDHGGGALTFGGGTK
chain 2: NIEWGDEVDLEM
B2: unnamed (parent)
chain 1: B1 chain 1
chain 2: DAIGMGSIGVMLAYMVRRKC
B3: unnamed (parent)
chain 1: B1 chain 1
chain 2: GYQLASEIRGTIPLSS

In the first assay the parent is B1. As to the kind of experiment: indirect ELISA. Conditions: with partner chain of the complex shown, scFv1 protein 50 µg/mL, value read at the highest peptide concentration, parent: 1.3, read off a plot. On the technique in general: ELISA stands for enzyme-linked immunosorbent assay.
chain 2 NIEAGAAVALEM [chain 2 W4A D6A E7A D9A]: the response (Binding activity) was 0.53.

The same assay, now with this note: with partner chain of the complex shown; peptides 50 µg/mL; scFv1 group of bars; parent: 1.3; read off a plot.
As to chain 2 NIEAGAAVALEM [chain 2 W4A D6A E7A D9A], the response (Binding activity) came to 0.52.

Still in this assay, the particulars now being: with partner chain of the complex shown; scFv1 50 µg/mL.
In the case of chain 2 NIEAGAAVALEM [chain 2 W4A D6A E7A D9A], the EC50 (lg EC50 (µg/mL)) came to 4.17.

Staying with this assay, now noted: with partner chain of the complex shown; scFv1 50 µg/mL; value read at the highest peptide concentration, log10 = 2 (µg/mL); parent: 0.77; read off a plot.
For chain 2 NIEAGAAVALEM [chain 2 W4A D6A E7A D9A], the response (Binding activity) was determined as 0.47.

The variants in another assay derive from B2. As to the kind of experiment: indirect ELISA. Conditions: with partner chain of the complex shown, scFv1 protein 50 µg/mL, value read at the highest peptide concentration, parent: 0.98, read off a plot.
With chain 2 DAIGMGAIGAMLAYMVARKC [chain 2 S7A V10A R17A], the response (Binding activity) was 0.46.

The assay is the same for the next values; noted with them: with partner chain of the complex shown; peptides 50 µg/mL; scFv1 group of bars; parent: 0.98; read off a plot.
Regarding chain 2 DAIGMGAIGAMLAYMVARKC [chain 2 S7A V10A R17A], the response (Binding activity) is 0.55.

The assay is the same for the next values; noted with them: with partner chain of the complex shown; scFv1 50 µg/mL.
On to chain 2 DAIGMGAIGAMLAYMVARKC [chain 2 S7A V10A R17A], for which the EC50 (lg EC50 (µg/mL)) is 3.96.

Still in this assay, the particulars now being: with partner chain of the complex shown; scFv1 50 µg/mL; value read at the highest peptide concentration, log10 = 2 (µg/mL); parent: 0.95; read off a plot.
On to chain 2 DAIGMGAIGAMLAYMVARKC [chain 2 S7A V10A R17A], for which the response (Binding activity) amounted to 0.47.

Another assay covers variants of B3. As to the kind of experiment: indirect ELISA. The conditions noted are these: with partner chain of the complex shown, scFv1 protein 50 µg/mL, value read at the highest peptide concentration, parent: 1.6, read off a plot.
On to chain 2 GAQLASEIAGTIPASS [chain 2 Y2A R9A L14A], for which the response (Binding activity) is 0.63.

The assay is the same for the next values; noted with them: with partner chain of the complex shown; peptides 50 µg/mL; scFv1 group of bars; parent: 1.6; read off a plot.
Consider chain 2 GAQLASEIAGTIPASS [chain 2 Y2A R9A L14A], for which the response (Binding activity) was 0.62.

The same assay, now with this note: with partner chain of the complex shown; scFv1 50 µg/mL.
Regarding chain 2 GAQLASEIAGTIPASS [chain 2 Y2A R9A L14A], the EC50 (lg EC50 (µg/mL)) stood at 3.57.

The assay is the same for the next values; noted with them: with partner chain of the complex shown; scFv1 50 µg/mL; value read at the highest peptide concentration, log10 = 2 (µg/mL); parent: 1.9; read off a plot.
With chain 2 GAQLASEIAGTIPASS [chain 2 Y2A R9A L14A], the response (Binding activity) amounted to 0.58.

These data come from article PMC12724136, “Design of antibody structure-guided epitope vaccines in silico to induce potent immune responses against emerging viruses” (Journal of Virology, 2025).
